± gives the standard deviation of the averaged measurements.
Test system: ATP
Assay: switch fluorescence ratio, 500 uM ATP over buffer (Cy3 cluster intensity, sum of 5 cycles each) (fold (ratio)); higher = stronger signal-on switching upon ATP binding; sequences stand for … in TCGTCGGCAGCGTCAGATGTGTATAAGAGACAGTTTTTTTTTTTTTTTTTTTTTTTTT…TC
Settings: aptamer strand: ATP DNA aptamer (quencher-CACCTGGGGGAGTATTGCGGAGGAAGG + anchor), 100 nM annealed; ATP concentration: 500 uM
Summary of the method: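 The quencher-labelled ATP aptamer, at 100 nM, was annealed to Cy3-labelled switching-strand clusters on a modified Illumina MiSeq flow-cell. The clusters were imaged in selection buffer, then after 15 min with 500 uM ATP at 22 °C, and this buffer/ATP cycle ran five times with NaOH stripping and re-annealing between runs. Per-cluster fluorescence ratios, summed target-cycle over summed buffer-cycle Cy3 intensity, were averaged per switch-domain sequence. Clusters outside 100-1000 RFU were excluded.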
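Also: ATP exposure 15 min at 22 °C before imaging.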

Row | Sequence | switch fluorescence ratio
1 | CGCAGGGTTA | 1.02 ± 0.052
2 | ATGCTGGGTC | 0.973 ± 0.028
3 | AAACTATGTG | 1.02 ± 0.037
4 | GACAGAGGGC | 0.96 ± 0.062
5 | AAGTTTGACC | 0.978 ± 0.032
6 | GTCACAGGCT | 1.02 ± 0.026
7 | AAGGGGAATA | 1.01 ± 0.035
8 | CGATTTACTT | 1.02 ± 0.04
9 | ACACGGGCCT | 1.03 ± 0.062
10 | CAAATTCGTC | 1.07 ± 0.015
11 | CTTTAAAGTT | 1.09 ± 0.18
12 | TGGCACGCGG | 0.986 ± 0.019
13 | CGGGTTTGCG | 0.992 ± 0.036
14 | TAATGGGGCG | 0.997 ± 0.025
15 | TTGTGCGAGA | 0.989 ± 0.013
16 | CGACGATACG | 0.991 ± 0.022
17 | AGACCCTTTT | 0.994 ± 0.037
18 | TACTTTTGCA | 0.985 ± 0.025
19 | GAGAGATTTT | 0.997 ± 0.034
20 | CTGGGTGCCG | 0.968 ± 0.084
21 | TTAGCATCTA | 0.999 ± 0.018
22 | TTGTTATTTT | 1 ± 0.03
23 | AATTTGGGGG | 1.02 ± 0.039
24 | TGAACTCGGG | 0.989 ± 0.017
25 | TACTTTTTTT | 1.01 ± 0.037

Row | Sequence | switch fluorescence ratio
26 | AATGAGTGTT | 1.02 ± 0.042
27 | CGTGGGAATA | 0.9992 ± 0.0082
28 | CATGCCAGAA | 0.981 ± 0.015
29 | GTTCTCTGGG | 0.987 ± 0.034
30 | TGGATAGAGT | 0.985 ± 0.02
31 | TCGACAGTCC | 1.037 ± 0.0085
32 | AATTTTGGAG | 0.996 ± 0.02
33 | CACAACTTAA | 0.9867 ± 0.0023
34 | GATATATTTT | 0.976 ± 0.01
35 | ATTGTGAGGG | 0.993 ± 0.011
36 | TGCTGAGTTT | 1.01 ± 0.05
37 | TGGGGCCTTA | 0.952 ± 0.018
38 | AAAAGTGGGT | 0.9942 ± 0.0081
39 | TACATCGTGC | 0.992 ± 0.016
40 | ATGATCTTCC | 2.3 ± 0.091
41 | CATGTGAAGG | 0.966 ± 0.037
42 | CTGTGCCAAG | 1.0036 ± 0.00061
43 | TTTAGTGTAA | 0.966 ± 0.019
44 | TGCAGGGTGC | 1.04 ± 0.016
45 | GCCGTGGAGA | 1.03 ± 0.021
46 | ACGGTTCAAT | 1.05 ± 0.011
47 | GCATACAGGA | 1.02 ± 0.024
48 | TAAAAAAGGA | 1.05 ± 0.12
49 | AATTTTGGTA | 0.994 ± 0.016
50 | AAATTGGGTA | 0.991 ± 0.024

Row | Sequence | switch fluorescence ratio
51 | TTTCAGGTGT | 2.15 ± 0.98
52 | GCCTTTTGCC | 1.044 ± 0.0094
53 | TGGCTCGGCT | 1.03 ± 0.051
54 | CCGGCTTGCA | 1.13 ± 0.017
55 | CTGTTGAATT | 1.01 ± 0.046
56 | ACTCGATACG | 1.07 ± 0.037
57 | TTAAATGGGG | 0.978 ± 0.011
58 | AGGCCGAGGG | 0.985 ± 0.012
59 | GGGGCTAGCG | 0.99 ± 0.02
60 | CTGAAGGGGG | 0.967 ± 0.058
61 | CCAGGTTTTG | 1.08 ± 0.031
62 | CATGGATTAA | 1 ± 0.011
63 | TTTTTCCGTA | 1.02 ± 0.059
64 | GCACGAATGC | 1.06 ± 0.025
65 | TACAGGGGGA | 1.09 ± 0.14
66 | TTTACTTCGC | 1.54 ± 0.089
67 | AGTCGGTGTG | 0.963 ± 0.0099
68 | AGAGGTTGTT | 0.995 ± 0.038
69 | ATAGTCTTTT | 1.02 ± 0.034
70 | AAGTAGGCTC | 0.991 ± 0.007
71 | GAGTAAGTGG | 0.99 ± 0.039
72 | GCGTTAGCCA | 1.01 ± 0.022
73 | CATGGCAACG | 0.993 ± 0.038
74 | GTTTGCCAGG | 1.01 ± 0.013
75 | GTGAGTCTGT | 0.9891 ± 0.001

Row | Sequence | switch fluorescence ratio
76 | GGTTGCCTGC | 0.96 ± 0.029
77 | CCTGGGTCTA | 1.03 ± 0.023
78 | ATAATTTCGG | 1.01 ± 0.026
79 | AGAAGGGGG | 0.968 ± 0.022
80 | GGGAGGCAGG | 1.07 ± 0.029
81 | GTTAAAAGGT | 1 ± 0.039
82 | GGCATCTGGG | 1.026 ± 0.0011
83 | TCGGACTAGG | 1 ± 0.031
84 | GCGGGGTGTG | 1.016 ± 0.0033
85 | TCGGCGGGTC | 0.9973 ± 0.0015
86 | ATGTTGAGCT | 1.019 ± 0.0023
87 | GCTTTAGAGG | 1.004 ± 0.0053
88 | TAATTAATCT | 0.992 ± 0.049
89 | TTATTGGGGC | 1.01 ± 0.03
90 | TAACGTCCAG | 0.978 ± 0.012
91 | TATGTCATAC | 1.14 ± 0.058
92 | ATAGTGATAT | 1.06 ± 0.11
93 | GTGGTATCAT | 0.978 ± 0.03
94 | GCGAAAAACG | 1.03 ± 0.056
95 | CTAAATTTTA | 0.989 ± 0.019
96 | CCGTGGGTAC | 5.55 ± 0.7
97 | TGGGGAGATA | 1.01 ± 0.018
98 | GATAGTTTGT | 1 ± 0.011
99 | ATCCGGACTT | 1.02 ± 0.034
100 | GACGGCGTTC | 1.008 ± 0.0058

Row | Sequence | switch fluorescence ratio
101 | GTCAGGGTTG | 1 ± 0.048
102 | AGGAATTTTC | 0.994 ± 0.032
103 | ATTTTCGCAT | 1.19 ± 0.051
104 | GTTTGATCTG | 0.959 ± 0.026
105 | GGACTTGGTT | 1.01 ± 0.034
106 | CGCGCGGTGT | 1.17 ± 0.2
107 | ACGATGGAAT | 1.45 ± 0.056
108 | TGTTTTGATG | 1.04 ± 0.078
109 | GAACGGAATT | 1.19 ± 0.023
110 | CGATGAGAGT | 1.03 ± 0.064
111 | AAGATATCGA | 1.02 ± 0.014
112 | GGGGGACTTA | 0.998 ± 0.043
113 | TTTTTAGACG | 0.981 ± 0.057
114 | TAAGCTGGTA | 0.995 ± 0.036
115 | TACTATTTGT | 1.04 ± 0.063
116 | ATGTCGGTCG | 1.02 ± 0.012
117 | TATCGTTTTT | 0.987 ± 0.046
118 | TGTTATAATG | 1.03 ± 0.068
119 | GCCGTAGCTC | 1.2 ± 0.078
120 | TAATGGTCTT | 1.02 ± 0.14
121 | CATGGGAAAT | 1.008 ± 0.005
122 | AGTTTTGCCT | 0.981 ± 0.032
123 | CCATTAGTTT | 0.987 ± 0.018
124 | ATTTTGGGTC | 0.991 ± 0.047
125 | ATAAAGAGGC | 0.978 ± 0.066

Row | Sequence | switch fluorescence ratio
126 | TTGGGAGGCG | 0.97 ± 0.039
127 | CAATATGCAG | 0.962 ± 0.012
128 | TCGGGTTGAC | 1.02 ± 0.025
129 | GAGTCTAGCG | 1.02 ± 0.064
130 | GGATTGTGAG | 0.987 ± 0.042
131 | AAGTGTATCA | 0.983 ± 0.02
132 | ATCCTTTCTT | 1.003 ± 0.0062
133 | GCCTTAATCT | 1.01 ± 0.038
134 | GTTAGCCTTG | 1 ± 0.039
135 | AGGACGTTTT | 0.962 ± 0.01
136 | GGCCGATCAT | 1.02 ± 0.04
137 | TCGGGGCAGG | 0.988 ± 0.013
138 | TTAGTTCCTT | 1.01 ± 0.024
139 | GTTGGGACGT | 0.973 ± 0.013
140 | TCTAAGTAAC | 1 ± 0.025
141 | GCCGTTAGCG | 1.02 ± 0.049
142 | CATAATAATC | 0.98 ± 0.026
143 | GATCCACGGT | 1.03 ± 0.027
144 | ATTTACAAGT | 1.003 ± 0.0063
145 | CCTGTCATCC | 1.17 ± 0.023
146 | AAGGCACGCT | 1 ± 0.065
147 | TATGGTGCCT | 1.02 ± 0.082
148 | AGGGTATTTG | 0.987 ± 0.011
149 | TTATCTAGTG | 0.9894 ± 0.0054
150 | TGTTGTTGAA | 1.01 ± 0.042

Row | Sequence | switch fluorescence ratio
151 | GTTGTGGCTC | 0.975 ± 0.036
152 | AGTATCGTGC | 0.9968 ± 0.0098
153 | GAGATAGGTT | 1.03 ± 0.073
154 | CGGGGAATAG | 1.16 ± 0.094
155 | ATGTGCCTGC | 1.07 ± 0.03
156 | TCTTATCTGG | 0.972 ± 0.012
157 | GTTATACATT | 1.02 ± 0.011
158 | CTAAGGAGGG | 0.989 ± 0.021
159 | TTTCCTGGCT | 1.02 ± 0.032
160 | AGATAATTAG | 1 ± 0.023
161 | CTATTGATGG | 0.996 ± 0.015
162 | GGCTACGAGA | 1.04 ± 0.018
163 | TTGTTAAATT | 0.98 ± 0.018
164 | TTTGGTATGG | 0.997 ± 0.015
165 | TAAAAGGTAC | 1.07 ± 0.07
166 | TTCCCTTAAT | 1 ± 0.015
167 | TTTTGTAGTT | 1 ± 0.043
168 | AAAAAGTTTT | 0.985 ± 0.058
169 | GGTAAGTAGG | 1.03 ± 0.042
170 | TGGCTGATTT | 1.003 ± 0.0053
171 | TAATGGCTCG | 1 ± 0.008
172 | TTTGACGGTT | 1.03 ± 0.015
173 | TACGGGTGGG | 1.169 ± 0.01
174 | CATTTGTTCT | 1 ± 0.049
175 | CCCAATTTCT | 1.05 ± 0.045

Row | Sequence | switch fluorescence ratio
176 | GTTTTCGGTT | 1.013 ± 0.0056
177 | CGGGCCGACT | 1.01 ± 0.039
178 | CGTTGTTCGT | 1 ± 0.0015
179 | CAATGAGTCT | 1.03 ± 0.035
180 | GGGCCCTGGG | 0.994 ± 0.059
181 | AGATCAAGGT | 1.02 ± 0.013
182 | GGGTACTGGG | 1 ± 0.034
183 | AACTTGGTGT | 0.983 ± 0.016
184 | CAGGGTTTTA | 1.006 ± 0.0055
185 | AAAGTGGTTG | 0.984 ± 0.024
186 | AAATGTTGAT | 1.03 ± 0.019
187 | GGGTGTGGGG | 0.989 ± 0.046
188 | ATCACGGGGG | 1.02 ± 0.019
189 | CTTAGTGCGG | 0.978 ± 0.0012
190 | TTTTTTAACT | 1 ± 0.046
191 | AGACGGGTAG | 0.968 ± 0.032
192 | ACGAGGATGC | 1.09 ± 0.024
193 | CAATGTTATC | 1.01 ± 0.017
194 | GGAGTAGGGA | 1.02 ± 0.031
195 | TTAGTAATTC | 1.12 ± 0.15
196 | GGGTAGACTT | 0.996 ± 0.013
197 | CGGATCCCGA | 0.995 ± 0.018
198 | CCGTAATGTG | 1.5 ± 0.16
199 | CTTCAGGTTG | 1.016 ± 0.0024
200 | TACAAGCTGT | 1.01 ± 0.014

— the supplement of paper PMC10126150
